Molecular target: T1, microtubules (alpha/beta-tubulin) (Sus scrofa, UniProt P02550)
T1 chain 1: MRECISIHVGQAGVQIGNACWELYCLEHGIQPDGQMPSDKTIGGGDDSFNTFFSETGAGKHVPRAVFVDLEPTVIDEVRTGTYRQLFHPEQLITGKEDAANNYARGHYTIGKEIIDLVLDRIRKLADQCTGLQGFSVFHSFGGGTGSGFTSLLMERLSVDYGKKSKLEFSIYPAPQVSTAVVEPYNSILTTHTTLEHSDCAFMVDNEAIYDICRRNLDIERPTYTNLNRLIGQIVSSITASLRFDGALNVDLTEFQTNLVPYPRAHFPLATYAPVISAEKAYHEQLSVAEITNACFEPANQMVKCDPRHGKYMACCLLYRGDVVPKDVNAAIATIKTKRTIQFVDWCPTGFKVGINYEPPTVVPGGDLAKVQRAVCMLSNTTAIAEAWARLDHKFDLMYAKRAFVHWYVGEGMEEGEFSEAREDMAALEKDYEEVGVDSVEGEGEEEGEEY
T1 chain 2: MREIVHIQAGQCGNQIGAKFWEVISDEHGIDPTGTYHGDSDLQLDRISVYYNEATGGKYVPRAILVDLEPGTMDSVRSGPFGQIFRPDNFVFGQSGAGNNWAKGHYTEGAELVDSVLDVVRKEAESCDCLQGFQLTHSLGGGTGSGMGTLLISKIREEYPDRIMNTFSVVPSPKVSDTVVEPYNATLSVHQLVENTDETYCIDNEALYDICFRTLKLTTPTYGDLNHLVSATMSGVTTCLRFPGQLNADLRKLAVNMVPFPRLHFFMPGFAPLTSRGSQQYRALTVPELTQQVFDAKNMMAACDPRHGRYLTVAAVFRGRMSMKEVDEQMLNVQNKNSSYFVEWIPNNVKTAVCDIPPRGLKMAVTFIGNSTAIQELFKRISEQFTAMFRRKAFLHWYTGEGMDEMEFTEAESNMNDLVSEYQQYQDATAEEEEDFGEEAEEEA
Test: microtubule co-sedimentation

Kd: 250 nM
B1: Mars (MBP-N-Mars) 1-430 (protein)
chain: MQRHKELYKEQSLVLSPRNHCQENRDRLQAARAKKREDCFYQNRIISVSPTPVKIKQLAAAQAALTQENVAPKLESPERLDTKPAELLKESNPKVSRQKLYLQRYMEWKIAKTKEHKQQDQKRRGAAINVPTVKQSKALPKSQTFRVPDNLASAKQKEAAPMFQPPKRCSLYMIANPTGKGKAAEPIKPSIPKPTSAAAPPSSNTVAASSALARHKSAASATKIVPAIRQNNNPVALARQKAAARPIPNTTKQTTSVRQPGIEAKKITTTIPRPTPATVTKAKTPGIRQQPPVVSTKPRLPEPPAPRTARLPNVLSKPFEKPLGNKAPVTRRANVVKPQPIRGGGGAAAKFKDTAGATSKAASHSIRMKATKIKSQYTRLQDNVRKLPQLKAELLHAATLDIPPLTPLDDIHNPFIDQATSTQCKSNNSS
modifications: MBP fusion, taxol-stabilized GMPPNP/GDP-NP microtubules

From article PMC3617137 (2013)
